From patent publication US20100183625A1, “Treatment of Mucositis with Kallikrein Inhibitors” (Dyax Corp., priority 2009, published 2010)

biological target: T1, pKal (Homo sapiens, UniProt P03952); test: Fab fragments (small scale) tested for inhibition against human pKal in an in vitro protease cleavage assay; format: biochemical; conditions: Table 9
T1 construct: two disulfide linked polypeptides; a heavy chain of approximately 52 kDa and a catalytic domain of approximately 34 kDa; host or cells: human plasma
Description: By DNA sequencing, we recovered 61 of the possible 80 antibodies (Table 9). These antibodies were produced as Fab fragments in small scale (˜20 μg) and tested for inhibition against human pKal in an in vitro protease cleavage assay using Pro-Phe-Arg-aminomethylcoumarin as the synthetic peptide substrate. […] Five antibodies were then expressed in 293T cells and purified by protein A sepharose chromatography. The antibodies were analyzed by SDS-PAGE to determine which of the inhibitory mutants are not cleaved by the host cell protease(s) (data not shown).

T1 sequence (P03952 391-638 limits assumed): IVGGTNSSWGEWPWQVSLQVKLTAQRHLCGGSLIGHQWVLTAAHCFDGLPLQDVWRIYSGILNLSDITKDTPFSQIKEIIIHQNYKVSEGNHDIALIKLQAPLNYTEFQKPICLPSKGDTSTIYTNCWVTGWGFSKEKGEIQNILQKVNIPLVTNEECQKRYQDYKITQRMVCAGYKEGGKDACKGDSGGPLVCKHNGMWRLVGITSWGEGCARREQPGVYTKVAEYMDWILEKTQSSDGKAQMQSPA
T1 sequence (P03952 20-390 partner limits assumed): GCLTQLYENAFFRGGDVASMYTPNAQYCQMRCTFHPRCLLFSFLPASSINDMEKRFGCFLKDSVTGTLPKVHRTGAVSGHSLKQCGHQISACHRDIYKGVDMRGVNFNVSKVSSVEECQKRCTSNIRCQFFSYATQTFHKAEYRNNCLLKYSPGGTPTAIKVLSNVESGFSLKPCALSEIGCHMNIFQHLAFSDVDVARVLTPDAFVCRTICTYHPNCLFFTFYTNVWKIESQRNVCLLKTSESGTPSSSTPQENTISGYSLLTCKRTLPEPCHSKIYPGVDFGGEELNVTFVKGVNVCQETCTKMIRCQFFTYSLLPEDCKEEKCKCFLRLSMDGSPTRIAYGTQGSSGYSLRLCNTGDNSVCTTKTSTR

Molecule	Inhibit as a Fab?
X67-B03: single point mutation of M142-H08 (P2); HV-CDR3 GGLLLWSRELKSNYFDY (antibody, V domains shown) VL: QDIQMTQSPSSLSAFVGDRVTITCRASQPIDNYLNWYHQKPGKAPKLLIYAASRLQSGVPSRLSGSGFGTDFTLTISSLQPEDFGNYYCQQSYTVPYTFGGGTKVEIR VH: EVQLLESGGGLVQPGGSLRLSCAASGFTFSAYSMIWVRQAPGKGLEWVSYIRPSGGRTTYADSVKGRFTISRDNSKNTLYLQMNSLRAEDTAVYYCARGGLLLWSRELKSNYFDYWGQGTLVTVSSASTKGPSVFPLAPSSKS	Yes
X67-B05: single point mutation of M142-H08 (P2); HV-CDR3 GGLLLWPRELKSNYFDY (antibody, V domains shown) VL: QDIQMTQSPSSLSAFVGDRVTITCRASQPIDNYLNWYHQKPGKAPKLLIYAASRLQSGVPSRLSGSGFGTDFTLTISSLQPEDFGNYYCQQSYTVPYTFGGGTKVEIR VH: EVQLLESGGGLVQPGGSLRLSCAASGFTFSAYSMIWVRQAPGKGLEWVSYIRPSGGRTTYADSVKGRFTISRDNSKNTLYLQMNSLRAEDTAVYYCARGGLLLWPRELKSNYFDYWGQGTLVTVSSASTKGPSVFPLAPSSKS	No
X67-F08: single point mutation of M142-H08 (P2); HV-CDR3 GGLLLWYRELKSNYFDY (antibody, V domains shown) VL: QDIQMTQSPSSLSAFVGDRVTITCRASQPIDNYLNWYHQKPGKAPKLLIYAASRLQSGVPSRLSGSGFGTDFTLTISSLQPEDFGNYYCQQSYTVPYTFGGGTKVEIR VH: EVQLLESGGGLVQPGGSLRLSCAASGFTFSAYSMIWVRQAPGKGLEWVSYIRPSGGRTTYADSVKGRFTISRDNSKNTLYLQMNSLRAEDTAVYYCARGGLLLWYRELKSNYFDYWGQGTLVTVSSASTKGPSVFPLAPSSKS	Yes
X67-F10: single point mutation of M142-H08 (P2); HV-CDR3 GGLLLWTRELKSNYFDY (antibody, V domains shown) VL: QDIQMTQSPSSLSAFVGDRVTITCRASQPIDNYLNWYHQKPGKAPKLLIYAASRLQSGVPSRLSGSGFGTDFTLTISSLQPEDFGNYYCQQSYTVPYTFGGGTKVEIR VH: EVQLLESGGGLVQPGGSLRLSCAASGFTFSAYSMIWVRQAPGKGLEWVSYIRPSGGRTTYADSVKGRFTISRDNSKNTLYLQMNSLRAEDTAVYYCARGGLLLWTRELKSNYFDYWGQGTLVTVSSASTKGPSVFPLAPSSKS	Yes
X66-B05: single point mutation of M142-H08 (P1); HV-CDR3 GGLLLWFCELKSNYFDY (antibody, V domains shown) VL: QDIQMTQSPSSLSAFVGDRVTITCRASQPIDNYLNWYHQKPGKAPKLLIYAASRLQSGVPSRLSGSGFGTDFTLTISSLQPEDFGNYYCQQSYTVPYTFGGGTKVEIR VH: EVQLLESGGGLVQPGGSLRLSCAASGFTFSAYSMIWVRQAPGKGLEWVSYIRPSGGRTTYADSVKGRFTISRDNSKNTLYLQMNSLRAEDTAVYYCARGGLLLWFCELKSNYFDYWGQGTLVTVSSASTKGPSVFPLAPSSKS	No
X67-E04: single point mutation of M142-H08 (P2); HV-CDR3 GGLLLWDRELKSNYFDY (antibody, V domains shown) VL: QDIQMTQSPSSLSAFVGDRVTITCRASQPIDNYLNWYHQKPGKAPKLLIYAASRLQSGVPSRLSGSGFGTDFTLTISSLQPEDFGNYYCQQSYTVPYTFGGGTKVEIR VH: EVQLLESGGGLVQPGGSLRLSCAASGFTFSAYSMIWVRQAPGKGLEWVSYIRPSGGRTTYADSVKGRFTISRDNSKNTLYLQMNSLRAEDTAVYYCARGGLLLWDRELKSNYFDYWGQGTLVTVSSASTKGPSVFPLAPSSKS	Yes
X67-G01: single point mutation of M142-H08 (P2); HV-CDR3 GGLLLWCRELKSNYFDY (antibody, V domains shown) VL: QDIQMTQSPSSLSAFVGDRVTITCRASQPIDNYLNWYHQKPGKAPKLLIYAASRLQSGVPSRLSGSGFGTDFTLTISSLQPEDFGNYYCQQSYTVPYTFGGGTKVEIR VH: EVQLLESGGGLVQPGGSLRLSCAASGFTFSAYSMIWVRQAPGKGLEWVSYIRPSGGRTTYADSVKGRFTISRDNSKNTLYLQMNSLRAEDTAVYYCARGGLLLWCRELKSNYFDYWGQGTLVTVSSASTKGPSVFPLAPSSKS	No
X67-B04: single point mutation of M142-H08 (P2); HV-CDR3 GGLLLWKRELKSNYFDY (antibody, V domains shown) VL: QDIQMTQSPSSLSAFVGDRVTITCRASQPIDNYLNWYHQKPGKAPKLLIYAASRLQSGVPSRLSGSGFGTDFTLTISSLQPEDFGNYYCQQSYTVPYTFGGGTKVEIR VH: EVQLLESGGGLVQPGGSLRLSCAASGFTFSAYSMIWVRQAPGKGLEWVSYIRPSGGRTTYADSVKGRFTISRDNSKNTLYLQMNSLRAEDTAVYYCARGGLLLWKRELKSNYFDYWGQGTLVTVSSASTKGPSVFPLAPSSKS	Yes
X66-E09: single point mutation of M142-H08 (P1); HV-CDR3 GGLLLWFAELKSNYFDY (antibody, V domains shown) VL: QDIQMTQSPSSLSAFVGDRVTITCRASQPIDNYLNWYHQKPGKAPKLLIYAASRLQSGVPSRLSGSGFGTDFTLTISSLQPEDFGNYYCQQSYTVPYTFGGGTKVEIR VH: EVQLLESGGGLVQPGGSLRLSCAASGFTFSAYSMIWVRQAPGKGLEWVSYIRPSGGRTTYADSVKGRFTISRDNSKNTLYLQMNSLRAEDTAVYYCARGGLLLWFAELKSNYFDYWGQGTLVTVSSASTKGPSVFPLAPSSKS	No
X67-C09: single point mutation of M142-H08 (P2); HV-CDR3 GGLLLWGRELKSNYFDY (antibody, V domains shown) VL: QDIQMTQSPSSLSAFVGDRVTITCRASQPIDNYLNWYHQKPGKAPKLLIYAASRLQSGVPSRLSGSGFGTDFTLTISSLQPEDFGNYYCQQSYTVPYTFGGGTKVEIR VH: EVQLLESGGGLVQPGGSLRLSCAASGFTFSAYSMIWVRQAPGKGLEWVSYIRPSGGRTTYADSVKGRFTISRDNSKNTLYLQMNSLRAEDTAVYYCARGGLLLWGRELKSNYFDYWGQGTLVTVSSASTKGPSVFPLAPSSKS	Yes
X66-D03: single point mutation of M142-H08 (P1); HV-CDR3 GGLLLWFEELKSNYFDY (antibody, V domains shown) VL: QDIQMTQSPSSLSAFVGDRVTITCRASQPIDNYLNWYHQKPGKAPKLLIYAASRLQSGVPSRLSGSGFGTDFTLTISSLQPEDFGNYYCQQSYTVPYTFGGGTKVEIR VH: EVQLLESGGGLVQPGGSLRLSCAASGFTFSAYSMIWVRQAPGKGLEWVSYIRPSGGRTTYADSVKGRFTISRDNSKNTLYLQMNSLRAEDTAVYYCARGGLLLWFEELKSNYFDYWGQGTLVTVSSASTKGPSVFPLAPSSKS	No

The remaining lines, values ahead:

Inhibit as a Fab?	Molecule
No	X68-H04: single point mutation of M142-H08 (P3); HV-CDR3 GGLLLVFRELKSNYFDY (antibody, V domains shown) VL: QDIQMTQSPSSLSAFVGDRVTITCRASQPIDNYLNWYHQKPGKAPKLLIYAASRLQSGVPSRLSGSGFGTDFTLTISSLQPEDFGNYYCQQSYTVPYTFGGGTKVEIR VH: EVQLLESGGGLVQPGGSLRLSCAASGFTFSAYSMIWVRQAPGKGLEWVSYIRPSGGRTTYADSVKGRFTISRDNSKNTLYLQMNSLRAEDTAVYYCARGGLLLVFRELKSNYFDYWGQGTLVTVSSASTKGPSVFPLAPSSKS
Yes	X67-G09: single point mutation of M142-H08 (P2); HV-CDR3 GGLLLWLRELKSNYFDY (antibody, V domains shown) VL: QDIQMTQSPSSLSAFVGDRVTITCRASQPIDNYLNWYHQKPGKAPKLLIYAASRLQSGVPSRLSGSGFGTDFTLTISSLQPEDFGNYYCQQSYTVPYTFGGGTKVEIR VH: EVQLLESGGGLVQPGGSLRLSCAASGFTFSAYSMIWVRQAPGKGLEWVSYIRPSGGRTTYADSVKGRFTISRDNSKNTLYLQMNSLRAEDTAVYYCARGGLLLWLRELKSNYFDYWGQGTLVTVSSASTKGPSVFPLAPSSKS
Yes	X67-H01: single point mutation of M142-H08 (P2); HV-CDR3 GGLLLWWRELKSNYFDY (antibody, V domains shown) VL: QDIQMTQSPSSLSAFVGDRVTITCRASQPIDNYLNWYHQKPGKAPKLLIYAASRLQSGVPSRLSGSGFGTDFTLTISSLQPEDFGNYYCQQSYTVPYTFGGGTKVEIR VH: EVQLLESGGGLVQPGGSLRLSCAASGFTFSAYSMIWVRQAPGKGLEWVSYIRPSGGRTTYADSVKGRFTISRDNSKNTLYLQMNSLRAEDTAVYYCARGGLLLWWRELKSNYFDYWGQGTLVTVSSASTKGPSVFPLAPSSKS
Yes	X67-G05: single point mutation of M142-H08 (P2); HV-CDR3 GGLLLWRRELKSNYFDY (antibody, V domains shown) VL: QDIQMTQSPSSLSAFVGDRVTITCRASQPIDNYLNWYHQKPGKAPKLLIYAASRLQSGVPSRLSGSGFGTDFTLTISSLQPEDFGNYYCQQSYTVPYTFGGGTKVEIR VH: EVQLLESGGGLVQPGGSLRLSCAASGFTFSAYSMIWVRQAPGKGLEWVSYIRPSGGRTTYADSVKGRFTISRDNSKNTLYLQMNSLRAEDTAVYYCARGGLLLWRRELKSNYFDYWGQGTLVTVSSASTKGPSVFPLAPSSKS
Yes	X67-H04: single point mutation of M142-H08 (P2); HV-CDR3 GGLLLWERELKSNYFDY (antibody, V domains shown) VL: QDIQMTQSPSSLSAFVGDRVTITCRASQPIDNYLNWYHQKPGKAPKLLIYAASRLQSGVPSRLSGSGFGTDFTLTISSLQPEDFGNYYCQQSYTVPYTFGGGTKVEIR VH: EVQLLESGGGLVQPGGSLRLSCAASGFTFSAYSMIWVRQAPGKGLEWVSYIRPSGGRTTYADSVKGRFTISRDNSKNTLYLQMNSLRAEDTAVYYCARGGLLLWERELKSNYFDYWGQGTLVTVSSASTKGPSVFPLAPSSKS
